Patent US20250368684A1, “NEW EGFRVIII-BINDING PEPTIDES, CONJUGATES AND USES THEREOF” (NANOTHERA BIOSCIENCES, INC., priority 2021, published 2025)
*: point of attachment. FITC = O=C1OC2(c3ccc(O)cc3Oc3cc(O)ccc32)c2ccc(NC(=S)*)cc21; Ahx = NCCCCCC(=O)O

How the values were obtained:
[1] = biological target: T1, hEGFRvIII (Homo sapiens, UniProt P00533, DELINS30-297G); assay: Phage display biopanning against hEGFRvIII with NGS enrichment analysis; assay type: binding; conditions: over rounds of biopanning
T1 construct: using purified and active extracellular domain for EGFRvIII protein; purchased Sino Biological
Procedure: Ph.D.-12™ Phage Display Peptide Library Kit was purchased from New England Biolabs Inc. (Beverly, MA, USA). Biopanning procedures were done according to the manufacturer's instruction with certain modifications. Briefly, a 96-well plate was coated with 150 μL hEGFRvIII (Sino Biological) (in the first two rounds at 100 μg/mL, the third round at 10 μg/mL) overnight at 4° C. Wells were washed with PBS, blocked with blocking buffer (3% BSA in PBS), washed six times with cold PBST (PBS+0.1% [v/v] Tween-20), then incubated with […] phage peptide library Ph.D.-12 for 2 hours at RT. […]
The NGS data analysis is an imperative approach to filter out all the non-specific binders and identify the putative binders. In addition, NGS also allows us to perform deeper quantitative analysis, such as calculating the frequency of amino acids distribution in each position of the peptide sequence, consensus motif and target unrelated peptides. […] This is highly useful as we can follow how the read of a peptide evolves or changes with the rounds of biopanning. […] The total number of sequences and the corresponding number of reads for each DNA sequence are recorded in a separate CSV file. […] Due to codon degeneracy, different codons can translate into same amino acids, thus after translation identical sequences exist with different reads. […]

[2] = biological target: T2, human EGF receptor variant III (EGFRvIII) on CLTH/EGFRvIII cells (human, UniProt P00533 25-1210); assay: flow cytometry, normalized MFI on EGFRvIII cells over normalized MFI on EGFR WT cells
T2 construct: whole, on cells
Procedure: On FITC-Ahx-peptides. Flow cytometry analysis was also performed to quantitatively analyze the binding affinity of the synthetized peptides to the different cell types. […] The next day, cells were treated with FITC-Ahx-peptides using a stock solution in pure DMSO at 5 mM to reach a final concentration of 10 µM (final percentage of DMSO of 0.2%). Plates were incubated for 20 min at RT. Cells were detached from the plates by a PBS fush, transferred to FACS tubes and washed 2 times with 4 mL of PBS. Cells were stained with LIVE/DEAD™ Fixable Near-IR Dead Cell Stain Kit (Thermofisher) as a viability marker. Cells were analyzed by flow cytometry on a MACSQuant Analyser 16 (Miltenyi Biotec) using the MACS Quantify software to acquire and process the data. LIVE/DEAD™ Fixable dye was excited at 640 nm and fluorescence was collected with the 785/62 nm filter. FITC was excited at 488 nm and fluorescence was collected with the 525/50 nm filter. Viable cells were gated, FITC fluorescence intensity was recorded and the mean fluorescence intensity (MFI) was measured. MFI values were then normalized by substracting MFI from blank cells and dividing by the correction factor determined using a spectrofluorimeter.

Molecule	enrichment on NGS [1]	Normalized MFI ratio vIII/WT [2]
NPIVRSAEDGQL (Negative hit peptide) [negative hit peptide from biopanning]	didn't show any significant enrichment	
{FITC-Ahx}-YHWYGYTPENVI-NH2 (SMILES CC[C@H](C)[C@H](NC(=O)[C@@H](NC(=O)[C@H](CC(N)=O)NC(=O)[C@H](CCC(=O)O)NC(=O)[C@@H]1CCCN1C(=O)[C@@H](NC(=O)[C@H](Cc1ccc(O)cc1)NC(=O)CNC(=O)[C@H](Cc1ccc(O)cc1)NC(=O)[C@H](Cc1c[nH]c2ccccc12)NC(=O)[C@H](Cc1c[nH]cn1)NC(=O)[C@H](Cc1ccc(O)cc1)NC(=O)CCCCCNC(=S)Nc1ccc2c(c1)C(=O)OC21c2ccc(O)cc2Oc2cc(O)ccc21)[C@@H](C)O)C(C)C)C(N)=O) [FITC-Ahx-YHWYGYTPENVI-CONH2]		2.1
